Patent US9951128B2, “Caninized anti-NGF antibodies and methods thereof” (ZOETIS SERVICES LLC, priority 2012, dated 2018)
Where two headings read alike, the source gives them in different places. Values belong to the molecule of their own block, whether it stands above or below them.

Key:
[1] = biological target: canine NGF; assay: SPR (Biacore T100) binding of anti-NGF mAbs to canine NGF
Description: As used herein, the term “affinity” refers to the strength of the binding of a single antigen-combining site with an antigenic determinant. Affinity depends on the closeness of stereochemical fit between antibody or antigen binding protein combining sites and antigen determinants, on the size of the area of contact between them, on the distribution of charged and hydrophobic groups, etc. Antibody affinity can be measured by equilibrium analysis or by the Surface Plasmon Resonance—“SPR” method (for example BIACORE™. The SPR method relies on the phenomenon of surface plasmon resonance (SPR), which occurs when surface plasmon waves are excited at a metal/liquid interface. Light is directed at, and reflected from, the side of the surface not in contact with sample, and SPR causes a reduction in the reflected light intensity at a specific combination of angle and wavelength. Bimolecular binding events cause changes in the refractive index at the surface layer, which are detected as changes in the SPR signal.
The generation of anti-drug antibodies (ADAs) can be associated with loss of efficacy for any biotherapeutic protein including monoclonal antibodies. Comprehensive evaluation of the literature has shown that speciation of monoclonal antibodies can reduce the propensity for mAbs to be immunogenic although examples of immunogenic fully human mAbs and non-immunogenic chimeric mAbs can be found. To help mitigate risks associated with ADA formation for the mouse anti-NGF, RN911, monoclonal antibody provided herein, a caninization strategy was employed. This caninization strategy is based on identifying the most appropriate canine germline antibody sequence for CDR grafting (FIG. 3). Following extensive analysis of all available canine germline sequences for both the heavy and light chains, germline candidates were selected on their homology to RN911, and the CDRs from RN911 were used to replace native canine CDRs. The objective was to retain high affinity and cell-based activity using fully canine frameworks to minimize the potential of immunogenicity in vivo. Caninized mAbs were optimized for mammalian expression, expressed and characterized for their ability to bind NGF via SPR. […] Only mAbs that retained both reliable expression levels and the ability to bind NGF following caninization were advanced for further characterization.
(§1) Affinities of each caninized anti-NGF antibody to canine NGF were measured using SPR (Surface Plasmon Resonance). In addition, a functional in vitro assay was developed to measure inhibition constants for the mAbs ability to inhibit binding of NGF to TrkA. […] Some affinity was lost, however, upon caninization to mAb CAN-N2G9-VH, CAN-E3M. Due to this loss of affinity, the caninized mAb was affinity matured (see Example 5 for details) to regain potency. Included in FIGS. 12 and 13 are the results of the affinity matured products, SSM57 (SEQ ID NO. 27 “CAN-SSM57-VH”, SEQ ID NO. 26 “CAN-SSME3M-VL”), SSM58 (SEQ ID NO. 28 CAN-SSM58-VH, SEQ ID NO. 26 “CAN-SSME3M-VL”), and SSM66 (SEQ ID NO.29 CAN-SSM66, SEQ ID NO. 26 CAN-SSME3M-VL) on each SPR assay.
SPR on the supernatants were performed as an initial screen, good binders were purified, and pure mAb was again run via SPR to measure binding to canine NGF (TABLE 5). Constructs LTM109 and LTM135 were chosen to progress based on binding affinities.
Various KD's correspond to different sensors, surface density varies slightly.
Mutated antibodies were expressed in HEK293 cells and evaluated for binding affinities to canine NGF (results below; expression results in Tables 7-9).

[2] = system: NGF binding to receptor trkA; assay: Functional in vitro assay: inhibition of NGF binding to TrkA (pre-incubated mAb+NGF); assay type: biochemical
Protocol: FIGS. 12A and B is a graphical representation of affinity data of caninized mAb (left). (Right) trkA inhibition data with pre-incubated mAb+NGF. (Bottom)
as §1

[3] = system: beagle (LPS-induced) synovitis pain model; assay: Dog LPS-induced synovitis pain model, lameness by visual analogue scale; assay type: in vivo; settings: synovitis induced 7 and 28 days post-dose
Protocol: PK/PD data were generated with RN911 in the target species in a synovitis efficacy study. In the synovitis pain model, transient inflammation of the synovial membrane in a single stifle is induced via intra-articular injection of bacterial lipopolysaccharide (LPS). Quantifiable lameness occurs within 2h of synovitis induction, peaks at 3-4h, is waning by 6h and is fully resolved after 24h. From an IACUC perspective, it is acceptable to induce synovitis on two separate occasions (i.e., once in each stifle), provided the lameness associated with the first synovitis induction has fully resolved. Therefore we designed a study in which synovitis was induced in the same beagle 3 days and 7 days after IV treatment (RN911 or PBS vehicle). After each synovitis induction, lameness was quantified using a visual analogue scale (VAS).
At this time, the free RN911 serum concentrations averaged 24400±3900 ng/mL (170±27 nM; FIG. 2).
Caninized mAb (CAN-SSME3M-VL, CAN-SSM57-HC) was tested in dog synovitis model at 5 mg/kg IV and 5 mg/kg SC. Results of study are shown in FIG. 14, inducing synovitis at 7 days and 28 days post-dose.

[4] = system: rat MIA model of osteoarthritis; assay: Rat MIA osteoarthritis model, weight bearing test; assay type: in vivo, Rat Ola Wistar; settings: dosed on study day 7 and study day 14
Protocol: Osteoarthritis (OA) is a degenerative joint disease characterized by joint pain and a progressive loss of articular cartilage. Intra-articular injection of MIA induces loss of articular cartilage with progression of subchondral bone lesions that mimic those of OA. This model offers a rapid and minimally invasive method to reproduce OA-like lesions in a rodent species.
Pain was assessed using weight bearing test for sustained pain and joint compression (Randall Selitto) test for mechanical hyperalgesia. See FIG. 17 for a schematic of the rat MIA procedure.
This training regime was required as it was anticipated that the level of variability within the experiment is relatively high. […]
Weight bearing deficits were measured in all rats on study day −1, this measurement served as a baseline. Weight bearing was then recorded on study days 9, 16, 21 and 28. […]
The weight bearing of each leg was measured separately by weight bearing apparatus (IITC, Series 8, Model 600®). This test quantifies the spontaneous postural changes reflecting spontaneous pain by independently measuring, on two separate sensors, the weight that the animal applies on each hind paw.
Results were calculated and represented as the percentage of weight that the animal leaned on the injected right leg or intact left leg from the total amount of leaned weight on the two hind legs. […]

[5] = canine NGF, 1:1 Binding fit, Table 9

Chain of canine NGF (as listed by the source): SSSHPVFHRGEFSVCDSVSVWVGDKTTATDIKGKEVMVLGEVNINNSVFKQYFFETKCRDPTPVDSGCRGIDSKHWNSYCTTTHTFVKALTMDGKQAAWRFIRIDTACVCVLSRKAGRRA
Chain of NGF binding to receptor trkA (as listed by the source): as above

Binding affinities to canine NGF among SSM mutated antibodies [1]: highest affinities
B2: SSM58: affinity matured caninized mAb: CAN-SSM58-VH (SEQ ID NO. 28), CAN-SSME3M-VL (SEQ ID NO. 26) (antibody, V domains shown)
VH: EVQLVESGGDLARPGGSLKLSCVVSGFSLIEYDINWVRQAPGKGLQWVTMIWGDGTTDYNSALKSRFTVSRDNAMNTVYLQMNSLRVEDTAVYYCARGGYWYATSYYFDYWGQGTLVTVSS
VL: DIVMTQTPLSLSVSPGETASISCRASQSISNNLNWFRQKPGQSPQRLIYYISSFHSGVPDRFSGSGSGTDFTLRISRVEADDTGVYYCQQSHTLPYTFGAGTKLEIK
modifications: canine

Binding affinities to canine NGF among SSM mutated antibodies [1]: highest affinities
B4: SSM66: affinity matured caninized mAb: CAN-SSM66-VH (SEQ ID NO. 29), CAN-SSME3M-VL (SEQ ID NO. 26) (antibody, V domains shown)
VH: EVQLVESGGDLARPGGSLKLSCVVSGFSLIEYDINWVRQAPGKGLQWVTMIWGTGTTDYNSALKSRFTVSRDNAMNTVYLQMNSLRVEDTAVYYCARGGYWYATSYYFDYWGQGTLVTVSS
VL: DIVMTQTPLSLSVSPGETASISCRASQSISNNLNWFRQKPGQSPQRLIYYISSFHSGVPDRFSGSGSGTDFTLRISRVEADDTGVYYCQQSHTLPYTFGAGTKLEIK
modifications: canine

Further lines, the molecule ahead of its results:

B1: CanE3M 65112: caninized RN911 mAb: CAN-N2G9-VH (SEQ ID NO. 17), CAN-E3M-VL (SEQ ID NO. 16), CAN-65E-HC, CAN-KAPPA-LC (antibody, V domains shown)
VH: EVQLVESGGDLARPGGSLKLSCVVSGFSLIGYDINWVRQAPGKGLQWVTMIWGDGTTDYNSALKSRFTVSRDNAMNTVYLQMNSLRVEDTAVYYCARGGYYYGTSYYFDYWGQGTLVTVSS
VL: DIVMTQTPLSLSVSPGETASISCRASQDISNHLNWFRQKPGQSPQRLIYYISRFHSGVPDRFSGSGSGTDFTLRISRVEADDTGVYYCQQSKTLPYTFGAGTKLEIK
modifications: canine constant regions without entries; canine
Kd ([1]; Dog NGF, Biacore T100, purified mAb, run 11/8 (different sensors), read-out: KD (M) 11/8): 3.35e-09 M | Kd ([1]; Dog NGF, Biacore T100, purified mAb, run 11/22 (different sensors), read-out: KD (M) 11/22): 1.46e-09 M | Kd ([1]; Dog NGF, Biacore T100, purified mAb, run 11/24 (different sensors), read-out: KD (M) 11/24): 2.35e-09 M | Kd ([1]; Dog NGF, Biacore T100, purified mAb, run 11/29 (different sensors), read-out: KD (M) 11/29): 3.51e-09 M | Binding of mAbs to NGF (FIGS. 12 and 13) ([1]; SPR): high affinity binding | ka [1, 5]: 17200 M⁻¹ s⁻¹ | kd [1, 5]: 8.11e-05 s⁻¹ | Kd ([1]; canine NGF, 1:1 Binding fit, Table 9, read-out: KD): 4.7e-09 M | Binding to canine NGF after caninization / framework substitution ([1]; expressed in HEK 293): retained NGF binding | Inhibition by mAbs of NGF binding to receptor trkA [2]: potent inhibition

B3: SSM57: affinity matured caninized mAb: CAN-SSM57-VH (SEQ ID NO. 27), CAN-SSME3M-VL (SEQ ID NO. 26) (antibody, V domains shown)
VH: EVQLVESGGDLARPGGSLKLSCVVSGFSLIQYDINWVRQAPGKGLQWVTMIWGDGTTDYNSALKSRFTVSRDNAMNTVYLQMNSLRVEDTAVYYCARGGYWYATSYYFDYWGQGTLVTVSS
VL: DIVMTQTPLSLSVSPGETASISCRASQSISNNLNWFRQKPGQSPQRLIYYISSFHSGVPDRFSGSGSGTDFTLRISRVEADDTGVYYCQQSHTLPYTFGAGTKLEIK
modifications: canine
Efficacy in dog synovitis model ([3]; 5 mg/kg IV): showed efficacy | Efficacy in dog synovitis model ([3]; 5 mg/kg SC): showed efficacy | Binding affinities to canine NGF among SSM mutated antibodies [1]: highest affinities | Analgesic effect in the rat MIA model of osteoarthritis [4]: demonstrated
